Measurements published in patent US20030118612A1 (MAXYGEN, published 2003).
Changes are numbered by the printed parent chain. Names and notes keep the numbering of the source.

What was measured:
Assay in all cases: cell-based or functional assay
human G-CSF receptor [1] = biological target: T1, human G-CSF receptor (human, UniProt Q99062 25-836)
T1 sequence (looked up): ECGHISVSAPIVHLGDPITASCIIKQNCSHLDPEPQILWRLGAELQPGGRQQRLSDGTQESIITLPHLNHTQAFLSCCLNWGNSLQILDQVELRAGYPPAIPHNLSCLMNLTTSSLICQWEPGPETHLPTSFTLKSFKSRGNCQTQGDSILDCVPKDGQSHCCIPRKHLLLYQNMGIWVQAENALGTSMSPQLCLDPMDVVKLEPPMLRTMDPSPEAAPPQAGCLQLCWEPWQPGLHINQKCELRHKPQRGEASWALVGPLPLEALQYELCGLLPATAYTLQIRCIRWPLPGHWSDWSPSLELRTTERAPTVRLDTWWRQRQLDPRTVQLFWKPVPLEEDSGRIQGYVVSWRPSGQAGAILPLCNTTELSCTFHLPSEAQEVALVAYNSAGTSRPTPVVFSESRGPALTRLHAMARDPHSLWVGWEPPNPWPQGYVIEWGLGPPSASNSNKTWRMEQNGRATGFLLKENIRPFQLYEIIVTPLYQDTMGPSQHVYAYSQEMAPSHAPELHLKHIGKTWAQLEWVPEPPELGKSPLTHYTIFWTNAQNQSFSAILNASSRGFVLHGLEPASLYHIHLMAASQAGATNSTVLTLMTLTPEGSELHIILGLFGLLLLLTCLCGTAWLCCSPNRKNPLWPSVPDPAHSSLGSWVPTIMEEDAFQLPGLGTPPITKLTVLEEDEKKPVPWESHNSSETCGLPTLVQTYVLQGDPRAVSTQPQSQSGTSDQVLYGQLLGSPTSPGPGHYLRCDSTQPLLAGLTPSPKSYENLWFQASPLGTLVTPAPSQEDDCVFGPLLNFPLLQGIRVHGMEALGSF

human G-CSF receptor [2] = biological target: T1, human G-CSF receptor; remark: listed apart in the source
human G-CSF receptor [3] = biological target: T1, human G-CSF receptor; remark: listed apart in the source

B1: G-CSF variant K16/34/40R conjugated to SPA-PEG 12000 (ligand)
chain: TPLGPASSLPQSFLLRCLEQVRKIQGDGAALQERLCATYRLCHPEELVLLGHSLGIPWAPLSSCPSQALQLAGCLSQLHSGLFLYQGLLQALEGISPELGPTLDTLQLDVADFATTIWQQMEELGMAPALQPTQGAMPAFASAFQRRAGGVLVASHLQSFLEVSYRVLRHLAQP
modifications: conjugated to SPA-PEG 12000
For B1, the “EC50 (% of hG-CSF) conjugated to SPA-PEG 12000” value (human G-CSF receptor [1]) was 10 % of hG-CSF.

B2: G-CSF variant K16/34/40R Q120K T133K, non-conjugated (ligand)
chain: B1 chain with Q120K, T133K
For B2, the “EC50 (% of hG-CSF) non-conjugated” value (human G-CSF receptor [2]) was 20 % of hG-CSF.

B3: G-CSF variant 23Q, non-conjugated (ligand)
chain: B1 chain with R16K, K23Q, R34K, R40K
In the case of B3, the “EC50 (% of hG-CSF) non-conjugated” value (human G-CSF receptor [2]) is reported as 80 % of hG-CSF.

B4: G-CSF variant K16/34/40R Q90K T105K conjugated to SPA-PEG 20000 (ligand)
chain: B1 chain with Q90K, T105K
modifications: conjugated to SPA-PEG 20000
B4 was tested, and the “EC50(% of hG-CSF) conjugated to SPA-PEG 20000” value (“EC50(% of hG-CSF) conjugated” below) (human G-CSF receptor [1]) was < 1 % of hG-CSF.

B5: G-CSF variant K16/34/40R T105K Q120K conjugated to SPA-PEG 5000 (ligand)
chain: B1 chain with T105K, Q120K
modifications: SPA-PEG 5000 conjugated to the available PEGylation sites
B5 was tested, and the “EC50 (% of hG-CSF) conjugated to SPA-PEG 5000” value (human G-CSF receptor [2]) was 8 % of hG-CSF.

B6: G-CSF variant K16/34/40R Q90K conjugated to SPA-PEG 20000 (ligand)
chain: B1 chain with Q90K
modifications: conjugated to SPA-PEG 20000
With B6 the “EC50(% of hG-CSF) conjugated” value (human G-CSF receptor [1]) was 7 % of hG-CSF.

B7: G-CSF variant K16/34/40R Q90K T105K S159K conjugated to SPA-PEG 12000 (ligand)
chain: B1 chain with Q90K, T105K, S159K
modifications: conjugated to SPA-PEG 12000
For B7, the “EC50 (% of hG-CSF) conjugated to SPA-PEG 12000” value (human G-CSF receptor [1]) was 1 % of hG-CSF.

B8: G-CSF variant K16/34/40R Q120K S142K, non-conjugated (ligand)
chain: B1 chain with Q120K, S142K
In the case of B8, the “EC50 (% of hG-CSF) non-conjugated” value (human G-CSF receptor [2]) is reported as 10 % of hG-CSF.

B9: G-CSF variant K16/34/40R Q90K T105K S159K conjugated to SPA-PEG 20000 (ligand)
chain: B1 chain with Q90K, T105K, S159K
modifications: conjugated to SPA-PEG 20000
For B9, the “EC50(% of hG-CSF) conjugated” value (human G-CSF receptor [1]) was < 1 % of hG-CSF.

B10: G-CSF variant K16/34/40R Q120K S142K conjugated to SPA-PEG 5000 (ligand)
chain: B1 chain with Q120K, S142K
modifications: SPA-PEG 5000 conjugated to the available PEGylation sites
With B10 the “EC50 (% of hG-CSF) conjugated to SPA-PEG 5000” value (human G-CSF receptor [2]) was 2 % of hG-CSF.

B11: G-CSF variant K16/34/40R T105K S159K conjugated to SPA-PEG 5000 (ligand)
chain: B1 chain with T105K, S159K
modifications: SPA-PEG 5000 conjugated to the available PEGylation sites
With B11 the “EC50 (% of hG-CSF) conjugated to SPA-PEG 5000” value (human G-CSF receptor [2]) was 20 % of hG-CSF.

B12: G-CSF variant K16/34/40R Q70K Q90K conjugated to SPA-PEG 12000 (ligand)
chain: B1 chain with Q70K, Q90K
modifications: conjugated to SPA-PEG 12000
With B12 the “EC50 (% of hG-CSF) conjugated to SPA-PEG 12000” value (human G-CSF receptor [1]) was 8 % of hG-CSF.

B13: G-CSF variant K16/34/40R Q70K Q90K T105K conjugated to SPA-PEG 5000 (ligand)
chain: B1 chain with Q70K, Q90K, T105K
modifications: SPA-PEG 5000 conjugated to the available PEGylation sites
B13 was tested, and the “EC50 (% of hG-CSF) conjugated to SPA-PEG 5000” value (human G-CSF receptor [2]) was 4 % of hG-CSF.

B14: G-CSF variant K16/34/40R T105K S159K conjugated to SPA-PEG 20000 (ligand)
chain: B1 chain with T105K, S159K
modifications: conjugated to SPA-PEG 20000
For B14, the “EC50(% of hG-CSF) conjugated” value (human G-CSF receptor [1]) was 5 % of hG-CSF.

B15: G-CSF variant K16/34/40R conjugated to SPA-PEG 20000 (ligand)
chain: B1 chain
modifications: conjugated to SPA-PEG 20000
For B15, the “EC50(% of hG-CSF) conjugated” value (human G-CSF receptor [1]) was 1 % of hG-CSF.

B16: G-CSF variant K16/34/40R Q70K Q90K T105K, non-conjugated (ligand)
chain: B1 chain with Q70K, Q90K, T105K
For B16, the “EC50 (% of hG-CSF) non-conjugated” value (human G-CSF receptor [2]) was 10 % of hG-CSF.

B17: G-CSF variant K16/34/40R T105K S159K, non-conjugated (ligand)
chain: B1 chain with T105K, S159K
For B17, the “EC50 (% of hG-CSF) non-conjugated” value (human G-CSF receptor [2]) was 40 % of hG-CSF.

B18: G-CSF variant K16/34/40R Q70K Q90K Q120K, non-conjugated (ligand)
chain: B1 chain with Q70K, Q90K, Q120K
For B18, the “EC50 (% of hG-CSF) non-conjugated” value (human G-CSF receptor [2]) was 20 % of hG-CSF.

B19: G-CSF variant K16/34/40R Q120K T133K conjugated to SPA-PEG 5000 (ligand)
chain: B1 chain with Q120K, T133K
modifications: SPA-PEG 5000 conjugated to the available PEGylation sites
B19 was tested, and the “EC50 (% of hG-CSF) conjugated to SPA-PEG 5000” value (human G-CSF receptor [2]) was 8 % of hG-CSF.

B20: G-CSF variant K16/34/40R T105K Q120K, non-conjugated (ligand)
chain: B1 chain with T105K, Q120K
With B20 the “EC50 (% of hG-CSF) non-conjugated” value (human G-CSF receptor [2]) was 20 % of hG-CSF.

B21: G-CSF variant K16/34/40R Q90K T105K conjugated to SPA-PEG 12000 (ligand)
chain: B1 chain with Q90K, T105K
modifications: conjugated to SPA-PEG 12000
In the case of B21, the “EC50 (% of hG-CSF) conjugated to SPA-PEG 12000” value (human G-CSF receptor [1]) is reported as 1 % of hG-CSF.

B22: G-CSF variant K16/34/40R T105K S159K conjugated to SPA-PEG 12000 (ligand)
chain: B1 chain with T105K, S159K
modifications: conjugated to SPA-PEG 12000
For B22, the “EC50 (% of hG-CSF) conjugated to SPA-PEG 12000” value (human G-CSF receptor [1]) was 6 % of hG-CSF.

B23: non-conjugated hG-CSF (Neupogen®) (ligand)
chain: MTPLGPASSLPQSFLLKCLEQVRKIQGDGAALQEKLCATYKLCHPEELVLLGHSLGIPWAPLSSCPSQALQLAGCLSQLHSGLFLYQGLLQALEGISPELGPTLDTLQLDVADFATTIWQQMEELGMAPALQPTQGAMPAFASAFQRRAGGVLVASHLQSFLEVSYRVLRHLAQP
Binder B23 has an EC50 (human G-CSF receptor [3]) of 0.03 nM.
